Patent publication US20180344870A1 (AGENUS, published 2018)

T1: human-mouse fusion construct 5017 of CD137, on Jurkat cells (human with a murine segment, UniProt Q07011 24-255)
T1 construct: on Jurkat cells
T1 chain: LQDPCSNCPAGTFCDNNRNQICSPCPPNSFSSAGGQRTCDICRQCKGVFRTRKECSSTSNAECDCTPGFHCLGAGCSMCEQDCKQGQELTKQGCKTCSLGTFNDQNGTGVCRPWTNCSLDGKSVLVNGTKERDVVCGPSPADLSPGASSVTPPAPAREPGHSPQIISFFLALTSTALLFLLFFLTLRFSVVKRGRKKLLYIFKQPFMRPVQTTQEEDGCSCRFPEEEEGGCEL

T2: human-mouse fusion construct 5015 of CD137, on Jurkat cells (human with a murine segment, UniProt Q07011 24-255)
T2 construct: also called mutant 5015; murine switch mutant 5015
T2 chain: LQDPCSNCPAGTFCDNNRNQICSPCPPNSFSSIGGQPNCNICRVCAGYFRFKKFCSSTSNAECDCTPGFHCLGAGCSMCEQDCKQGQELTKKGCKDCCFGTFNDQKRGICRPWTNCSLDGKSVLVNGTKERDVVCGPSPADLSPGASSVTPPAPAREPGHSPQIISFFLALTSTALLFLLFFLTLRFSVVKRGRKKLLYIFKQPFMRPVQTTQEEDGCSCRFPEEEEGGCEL

T3: human-mouse fusion construct 5018 of CD137, on Jurkat cells (human with a murine segment, UniProt Q07011 24-255)
T3 construct: also called mutant 5018; murine switch mutant 5018
T3 chain: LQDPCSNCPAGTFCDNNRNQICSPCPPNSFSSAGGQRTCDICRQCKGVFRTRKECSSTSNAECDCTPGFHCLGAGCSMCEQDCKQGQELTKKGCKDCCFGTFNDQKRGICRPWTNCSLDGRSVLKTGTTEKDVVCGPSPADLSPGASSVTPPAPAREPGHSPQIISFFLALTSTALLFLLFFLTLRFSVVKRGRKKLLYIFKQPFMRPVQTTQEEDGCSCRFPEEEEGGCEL

T4: human-mouse fusion construct 5016 of CD137, on Jurkat cells (human with a murine segment, UniProt Q07011 24-255)
T4 chain: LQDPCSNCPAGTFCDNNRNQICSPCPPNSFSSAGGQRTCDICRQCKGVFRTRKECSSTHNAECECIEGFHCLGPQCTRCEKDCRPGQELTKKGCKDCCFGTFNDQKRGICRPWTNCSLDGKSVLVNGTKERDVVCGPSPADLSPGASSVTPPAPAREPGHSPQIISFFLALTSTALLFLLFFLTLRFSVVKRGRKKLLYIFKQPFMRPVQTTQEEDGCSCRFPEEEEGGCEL

T5: mouse-human fusion construct 5017 (extracellular domain, Gly-Ser linker, 6×His tag) (murine with a human segment, UniProt P20334 24-187)
T5 construct: not shown: Gly-Ser linker
T5 chain (part 1 of 2): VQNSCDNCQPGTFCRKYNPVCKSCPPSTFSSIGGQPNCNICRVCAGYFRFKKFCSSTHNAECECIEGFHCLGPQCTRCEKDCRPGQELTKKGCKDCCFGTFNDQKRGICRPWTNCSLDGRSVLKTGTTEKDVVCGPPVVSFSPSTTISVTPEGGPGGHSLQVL
T5 chain (part 2 of 2): HHHHHH

T6: mouse-human fusion construct 5015 (extracellular domain, Gly-Ser linker, 6×His tag) (murine with a human segment, UniProt P20334 24-187)
T6 construct: also called mCD137-human53-80; not shown: Gly-Ser linker
T6 chain (part 1 of 2): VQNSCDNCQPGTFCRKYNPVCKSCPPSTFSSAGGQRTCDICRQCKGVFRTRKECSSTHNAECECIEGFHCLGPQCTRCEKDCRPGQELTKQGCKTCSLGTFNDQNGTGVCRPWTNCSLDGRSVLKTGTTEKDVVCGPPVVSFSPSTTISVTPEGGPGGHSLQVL
T6 chain (part 2 of 2): HHHHHH

B1: BA001 (IgG1) (antibody, V domains shown)
VH: not shown
VL: SYVLTQPPSVSVAPGETARITCGGDDIGDKRVHWYQKKPDQAPVLVVYEDRYRPSGIPERISGSNSGNTATLTLSRVEAGDEADYYCQVWDSSSDHPGVFGGGTQLIILG
modifications: N-terminal X = glutamine (Q) or pyroglutamate (pE)
notes: Human IgG1 with lambda light chain; also called anti-CD137 antibody BA001
B2: BA049 (IgG1 format) (antibody, V domains shown)
VH: not shown
VL: SYVLTQPPSVSVAPGETARITCGGDDIGDKRVHWYQKKPDQAPVLVVYEDRYRPSGIPERISGSNSGNTATLTLSRVEAGDEADYYCQVWDSSSDHPGVFGGGTQLIILG
modifications: N-terminal X = glutamine (Q) or pyroglutamate (pE)
B3: BA052 (IgG1 format) (antibody, V domains shown)
VH: QVQLVQSGAEVKKPGASVKVSCKASGYNFSGYYMHWVRQAPGQGLEWMGWINPNSGGTNYAQKFQGRVTITRDTSISTAYMELSRLRSDDTAVYYCAREPGYYGSGLDYWGQGTLVTVSS
VL: SYVLTQPPSVSVAPGETARITCGGDDIGDKRVHWYQKKPDQAPVLVVYEDRYRPSGIPERISGSNSGNTATLTLSRVEAGDEADYYCQVWYSSPDHPGVFGGGTQLIILG
modifications: N-terminal X = glutamine (Q) or pyroglutamate (pE)
B4: BA050 (IgG1 format) (antibody, V domains shown)
VH: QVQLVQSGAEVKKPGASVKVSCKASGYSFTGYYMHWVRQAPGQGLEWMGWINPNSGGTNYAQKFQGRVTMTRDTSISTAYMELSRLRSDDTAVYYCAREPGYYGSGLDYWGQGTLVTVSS
VL: SYVLTQPPSVSVAPGETARITCGGDDIGDKRVHWYQKKPDQAPVLVVYEDRYRPSGIPERISGSNSGNTATLTLSRVEAGDEADYYCQVWNSSSDHPGVFGGGTQLIILG
modifications: N-terminal X = glutamine (Q) or pyroglutamate (pE)
B5: BA051 (IgG1 format) (antibody, V domains shown)
VH: not shown
VL: SYVLTQPPSVSVAPGETARITCGGDDIGDKRVHWYQKKPDQAPVLVVYEDRYRPSGIPERISGSNSGNTATLTLSRVEAGDEADYYCQVWDSSSDYPGVFGGGTQLIILG
modifications: N-terminal X = glutamine (Q) or pyroglutamate (pE)

Assays:
[1] = biological target: T7, human CD137 expressed on cells (human, UniProt Q07011 24-255); assay: flow cytometry on engineered Jurkat cells, anti-human lambda-PE detection
T7 construct: also called 4-1BB; TNFRSF9

[2] = biological target: T1, human-mouse fusion construct 5017 of …; assay: flow cytometry on transfected Jurkat cells, serial dilutions of antibody
Experimental: (§1) These engineered mutant cell lines were used to test whether anti-CD137 antibody can bind to particular switch mutants. Absence of binding would thereby indicate possible epitope locations. The cell binding assays were performed generally as described in Section 1.1. […] The cells were then washed and suspended in 80 μl of 2% paraformaldehyde (Electron Microscopy Sciences) prepared in PBS. Data were collected with BD FACS Canto and analyzed using BD FACSDiva software.

[3] = biological target: T2, human-mouse fusion construct 5015 of …; assay: flow cytometry on transfected Jurkat cells, anti-human IgG-PE detection
Experimental: as §1

[4] = biological target: T3, human-mouse fusion construct 5018 of …; assay: as above
Experimental: as §1

[5] = biological target: T4, human-mouse fusion construct 5016 of …; assay: as above
Experimental: as §1

[6] = biological target: T8, “4-aa mouse to human” CD137 protein (murine with a human segment, UniProt P20334 24-187); assay: SPR, BA001 captured by anti-human Fab, chimeric protein at 60 nM as analyte
T8 construct: also called “mouse to human” CD137 chimeric protein; not shown: Gly-Ser linker
Experimental: (§2) The chimeric CD137 proteins described above were tested in a surface plasmon resonance (SPR) assay. Briefly, a CM5 sensor chip was first coated with an anti-human Fab antibody using the amine coupling kit. […] Sensorgrams were recorded during both the association and dissociation phases.

[7] = biological target: T9, “4-aa human to mouse” CD137 protein (human with a murine segment, UniProt Q07011 24-186); assay: SPR, antibody captured by anti-human Fab, CD137 protein as analyte
T9 construct: also called “human to mouse” CD137 chimeric protein; not shown: Gly-Ser linker
Experimental: as §2

[8] = biological target: T5, mouse-human fusion construct 5017 …; assay: ELISA (DELFIA europium read-out), antigen coated at 5 µg/ml, IgG1 titrated
Experimental: (§3) Specifically, 50 μl of 5 μg/ml of each antigen diluted in 1×PBS pH 7.4 (Gibco™, Cat no. 10010056) was added to each well in a Thermo Scientific™ Black 96-Well Immuno Plate (Thermofisher Scientific, Cat no. 437111) and incubated at 4° C. overnight. The plate was washed three times with PBS using the Biotek 405TS microplate washer with Biostack3 microplate stacker. The plate was blocked by incubating with 300 ul/well of 3% Milk Powder in PBS (Marvel dried skimmed milk powder) for 1 hour at room temperature, and were washed three times with 1×PBS. The antibodies titrated in 3% M-PBS (Milk Powder in 1×PBS) were added to the plate and incubated for 1 hour at room temperature. The plate was washed three times with 1×PBS with 0.1% Tween20 (Sigma Aldrich, Cat No. P1379) and three times with 1×PBS using the plate washer. 50 μl Biotin-SP (long spacer) AffiniPure Goat Anti-Human IgG, Fcγ Fragment Specific (Jackson Immuno Research, Code:109-065-098, Lot no. 123909) diluted at 1:2000 in 3% M-PBS was added to each well and incubated for 1 hour at room temperature. The plate was washed three times with 1×PBS with 0.1% Tween20 and three times with 1×PBS using the plate washer. For detection, 50 μl of DELFIA® Europium-labeled streptavidin (PerkinElmer, Part no. 1244-360, Lot no. 2195997) diluted in the DELFIA® Assay buffer (PerkinElmer, Part no. 4002-0010, Lot no. 646702) at 1:500 was added to each well and incubated for 1 hour at room temperature. The plate was washed three times with 1×PBS with 0.1% Tween20 and three times with PBS using the plate washer.

[9] = biological target: T10, extracellular domain of human CD137 with Gly-Ser linker and 6×His tag (human, UniProt Q07011 24-186); assay: as above
T10 construct: also called human CD137 (ELISA antigen); not shown: Gly-Ser linker
Experimental: as §3

[10] = biological target: T6, mouse-human fusion construct 5015 …; assay: ELISA (DELFIA europium read-out), antigen coated at 5 µg/ml
Experimental: as §3

Binder | binding result [1] | binding result [2] | binding result [3] | binding result [4] | binding result [5] | binding result [6] | binding result [7] | binding result [8] | binding result [9] | binding result [10]
B1 | binds | no binding | binds | binds | binds | binds | no binding (tested: 60 nM) | – | – | –
B2 | – | – | – | – | – | – | – | binds | binds | no binding
B3 | – | – | – | – | – | – | – | binds | binds | no binding
B4 | – | – | – | – | – | – | – | binds | binds | no binding
B5 | – | – | – | – | – | – | – | binds | binds | no binding
